Laboratory results as given in patent US7084109B2, “FVIIa antagonists” (Genentech, Inc., priority 1999, dated 2006).
No end group written: not given here.

Assays:
TF-FVIIa = TF-FVIIa (Homo sapiens, UniProt P08709); assay: FX Activation Assay (activation of FX by TF-FVIIa); format: biochemical
Description: FX Activation Assay—Activation of FX by TF-FVIIa was monitored at room temperature as a function of peptide concentration. Each assay sample contained 100 μl of 460 pM relipidated TF1-243 (TFPC) (Kelley, R. F. et al. (1997) Blood 89:3219-3227) and 30 pM FVIIa in HBS/Ca buffer (20 mM HEPES, pH 7.4, 5 mM CaCl2, 150 mM NaCl, 0.1% PEG 8000); after 20 min, 25 μl of peptide diluted in HBS/Ca Buffer was added. Following a 30 min incubation the reaction was initiated by the addition of 25 μl of 1 μM FX in HBS/Ca (Note: this yields a final concentration of 306 pM TFPC, 20 pM FVIIa, and 166 nM FX). For kinetic analysis, the final concentration of FX was varied from between 20 and 500 nM. Aliquots of 25 μl were removed at 1, 3, 5, 7 and 9 min and quenched in 25 μl of 50 mM EDTA. The FXa generated in each aliquot could be measured by the addition of 100 μl of 250 nM Spectrozyme fXa (American Diagnostica), 50 mM Tris, pH 8, 50 mM NaCl, 0.0025% Triton X-100. The rate of FXa generated at each peptide concentration was proportional to the initial slope of the absorbance at 405 nm vs. time. Sigmoidal curves were fit to a four parameter equation by nonlinear regression analysis (Marquardt, J. Soc. Indust. Appl. Math. 11:431-441 (1963); the concentration of each peptide required to give a half-maximal signal in the assay was calculated from the curves and is referred to as the IC50 value. […]

[1] = system: TF dependent extrinsic clotting pathway in human plasma; assay: Prothrombin time (PT) clotting assay
Description: Clotting Assays—Prothrombin time (PT) and activated partial thromboplastin time (APTT) clotting time assays were performed in citrated pooled normal plasmas (human or various animal species). Clotting times were determined using an ACL 300 Automated Coagulation Analyzer (Coulter Corp., Miami, Fla.) and commercially available reagents as follows.
For the PT assay, aqueous solutions of inhibitor at various concentrations were added to citrated pooled normal plasma in a ratio of 1 part inhibitor to 9 parts plasma. Following a 30 min incubation, these mixtures were added to sample cups of an ACL 300 Analyzer. Innovin® (Dade International Inc., Miami, Fla.), a mixture of human relipidated tissue factor and Ca^2+ ions was added to the reagent cup. Precise volumes of sample and Innovin® (50 μl sample, 100 μl Innovin) were automatically transferred to cells of an acrylic rotor pre-equilibrated to 37° C. Following a 2 min incubation period, coagulation was initiated by mixing the two components by centrifugation. Coagulation was monitored optically and clotting time was reported in seconds. In this system, the clotting time of control plasmas (plasma plus inhibitor diluent) was typically 8 to 10 seconds. The fold prolongation is the clotting time of the inhibitor relative to the clotting time of the control.
Clotting Assays—The PT clotting assay was carried out as described in Example 1.

TF-FVIIa, sequence (P08709 61-212 limits assumed): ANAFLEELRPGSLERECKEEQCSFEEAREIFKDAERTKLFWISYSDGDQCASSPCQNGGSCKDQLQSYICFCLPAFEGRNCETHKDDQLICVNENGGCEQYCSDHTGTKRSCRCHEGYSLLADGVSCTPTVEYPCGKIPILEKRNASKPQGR
TF-FVIIa, sequence (P08709 213-466 limits assumed): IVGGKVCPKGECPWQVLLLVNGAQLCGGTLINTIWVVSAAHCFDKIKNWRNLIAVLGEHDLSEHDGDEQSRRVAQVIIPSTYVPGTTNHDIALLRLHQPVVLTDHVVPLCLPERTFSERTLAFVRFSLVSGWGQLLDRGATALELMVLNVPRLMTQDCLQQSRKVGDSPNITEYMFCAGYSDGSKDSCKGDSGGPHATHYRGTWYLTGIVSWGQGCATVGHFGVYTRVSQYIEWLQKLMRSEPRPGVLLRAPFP
TF-FVIIa, sequence (P13726 33-275 partner limits assumed): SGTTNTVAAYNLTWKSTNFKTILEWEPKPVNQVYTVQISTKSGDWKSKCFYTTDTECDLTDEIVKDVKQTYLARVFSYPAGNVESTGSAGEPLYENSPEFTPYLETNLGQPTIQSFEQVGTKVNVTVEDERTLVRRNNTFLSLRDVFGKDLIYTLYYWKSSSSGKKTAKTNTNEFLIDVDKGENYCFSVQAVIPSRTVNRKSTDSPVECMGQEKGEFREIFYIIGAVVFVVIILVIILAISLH

Substance: TF151-Fc: peptide sequence TF151 with a GGGSSG linker fused to the Fc portion of human IgG1, expressed in insect cells; forms a dimer (SQAQRRAVGALCDNPRIDRWYCQFVEGGGGSSG-{human IgG1 Fc}; cysteine pairing not given here; also: dimer)
- ability to inhibit FX activation by TF-FVIIa (TF-FVIIa): comparable to the peptide TF151
- prolongation of the prothrombin time (potency) [1]: comparable to peptide TF151
